Patent US20220220185A1 (CELL NETWORKS, published 2022)

Key:
Sm-Gβ1 with untagged Gγ2 [1] = molecular target: T1, Sm-Gβ1 with untagged Gγ2 (human, UniProt P62873 2-340; P59768 2-68); test: NanoBiT split-luciferase complementation in HEK293 cells (NanoBiT-G13: Gα13-Lg, Sm-Gβ1, Gγ2; pairing from paragraph 252)
T1 construct: whole, on cells; also called Sm-Gβγ; SmBiT-fused Gβ1 subunit and native Gγ2 subunit
Procedure: (§1) To complement the inventive chimeric G-protein-based TGFα shedding assay, the inventors made an additional inventive assay in which dissociation of the Gα subunit from the Gβγ subunits, a critical process of G-protein activation, is measured via a luciferase complementation system. Bioluminescence Resonance Energy Transfer (BRET) between a Renilla luciferase-inserted Gα subunit and a GFP10-fused Gβ or Gγ subunit was previously developed to measure Gα-Gβγ dissociation (Gales et al., 2005). Here, they replaced the BRET pair with a split luciferase (NanoLuc Binary Technology; NanoBiT) (Dixon et al., 2016). […] They generated a series of Gα-Lg, Sm-Gβ and Sm-Gγ subunits and optimized a combination.
(§2) Plasmid transfection was performed in a 6-well plate with a mixture of 100 ng Gα-Lg-encoding plasmid, 500 ng Sm-Gβ-encoding plasmid, 500 ng untagged Gγ₂-encoding plasmid, 200 ng GPCR-encoding plasmid with or without 100 ng RIC8-encoding plasmid (per well, hereafter).

Sm-Gβ1 with untagged Gγ2 [2] = molecular target: T1, Sm-Gβ1 with untagged Gγ2; test: NanoBiT split-luciferase complementation in HEK293 cells (NanoBiT-Gq: Gαq-Lg, Sm-Gβ1, Gγ2; pairing from paragraph 252)
Procedure: as §1, §2

Sm-Gβ1 with untagged Gγ2 [3] = molecular target: T1, Sm-Gβ1 with untagged Gγ2; test: NanoBiT split-luciferase complementation in HEK293 cells (NanoBiT-Gs: Gαs-Lg, Sm-Gβ1, Gγ2; pairing from paragraph 252)
Procedure: as §1, §2

Sm-Gβ1 with untagged Gγ2 [4] = molecular target: T1, Sm-Gβ1 with untagged Gγ2; test: NanoBiT split-luciferase complementation in HEK293 cells (NanoBiT-G12: Gα12-Lg, Sm-Gβ1, Gγ2; pairing from paragraph 252)
Procedure: as §1, §2

T1 sequence (P62873 other isoform, or with tags, fused parts or gaps, chain 1 of 2): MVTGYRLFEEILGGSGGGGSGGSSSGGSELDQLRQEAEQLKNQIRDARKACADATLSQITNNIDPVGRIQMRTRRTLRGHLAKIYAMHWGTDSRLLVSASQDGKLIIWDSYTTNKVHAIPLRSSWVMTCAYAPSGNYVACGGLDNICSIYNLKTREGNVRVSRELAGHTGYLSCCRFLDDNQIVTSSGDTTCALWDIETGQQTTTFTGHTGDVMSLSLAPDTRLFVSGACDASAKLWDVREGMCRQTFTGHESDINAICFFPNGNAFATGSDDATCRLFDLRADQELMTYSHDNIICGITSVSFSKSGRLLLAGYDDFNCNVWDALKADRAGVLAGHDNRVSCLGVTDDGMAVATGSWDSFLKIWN
T1 sequence (P59768 2-68, chain 2 of 2): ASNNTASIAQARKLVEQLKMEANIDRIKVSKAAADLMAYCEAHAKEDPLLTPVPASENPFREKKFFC

B1: Gα13-Lg (other, human, UniProt Q14344 1-377, looked up)
chain: MADFLPSRSVLSVCFPGCLLTSGEAEQQRKSKEIDKCLSREKTYVKRLVKILLLGAGESGKSTFLKQMRIIHGQDFDQRAREEFRPTIYSNVIKGMRVLVDAREKLHIPWGDNSNQQHGDKMMSFDTRAPMAAQGMVETRVFLQYLPAIRALWADSGIQNAYDRRREFQLGESVKYFLDNLDKLGEPDYIPSQQDILLARRPTKGIHEYDFEIKNVPFKMVDVGGQRSERKRWFECFDSVTSILFLVSSSEFDQVLMEDRLTNRLTESLNIFETIVNNRVFSNVSIILFLNKTDLLEEKVQIVSIKDYFLEFEGDPHCLRDVQKFLVECFRNKRRDQQQKPLYHHFTTAINTENIRLVFRDVKDTILHDNLKQLMLQ
notes: whole, on cells; the LgBiT insert is not placed; also called NanoBiT-G13 (Gα subunit); G13
B1: binds (Sm-Gβ1 with untagged Gγ2 [1]).

B2: Gαq-Lg (other, human, UniProt P50148 1-359, looked up)
chain: MTLESIMACCLSEEAKEARRINDEIERQLRRDKRDARRELKLLLLGTGESGKSTFIKQMRIIHGSGYSDEDKRGFTKLVYQNIFTAMQAMIRAMDTLKIPYKYEHNKAHAQLVREVDVEKVSAFENPYVDAIKSLWNDPGIQECYDRRREYQLSDSTKYYLNDLDRVADPAYLPTQQDVLRVRVPTTGIIEYPFDLQSVIFRMVDVGGQRSERRKWIHCFENVTSIMFLVALSEYDQVLVESDNENRMEESKALFRTIITYPWFQNSSVILFLNKKDLLEEKIMYSHLVDYFPEYDGPQRDAQAAREFILKMFVDLNPDSDKIIYSHFTCATDTENIRFVFAAVKDTILQLNLKEYNLV
notes: whole, on cells; the LgBiT insert is not placed; also called NanoBiT-Gq (Gα subunit); Gq
B2: binds (Sm-Gβ1 with untagged Gγ2 [2]).

B3: Gαs-Lg (other, human, UniProt P63092 2-394, looked up)
chain: GCLGNSKTEDQRNEEKAQREANKKIEKQLQKDKQVYRATHRLLLLGAGESGKSTIVKQMRILHVNGFNGEGGEEDPQAARSNSDGEKATKVQDIKNNLKEAIETIVAAMSNLVPPVELANPENQFRVDYILSVMNVPDFDFPPEFYEHAKALWEDEGVRACYERSNEYQLIDCAQYFLDKIDVIKQADYVPSDQDLLRCRVLTSGIFETKFQVDKVNFHMFDVGGQRDERRKWIQCFNDVTAIIFVVASSSYNMVIREDNQTNRLQEALNLFKSIWNNRWLRTISVILFLNKQDLLAEKVLAGKSKIEDYFPEFARYTTPEDATPEPGEDPRVTRAKYFIRDEFLRISTASGDGRHYCYPHFTCAVDTENIRRVFNDCRDIIQRMHLRQYELL
notes: whole, on cells; the LgBiT insert is not placed; also called NanoBiT-Gs (Gα subunit); Gs
B3: binds (Sm-Gβ1 with untagged Gγ2 [3]).

B4: Gα12-Lg (other, human, UniProt Q03113 1-381, looked up)
chain: MSGVVRTLSRCLLPAEAGGARERRAGSGARDAEREARRRSRDIDALLARERRAVRRLVKILLLGAGESGKSTFLKQMRIIHGREFDQKALLEFRDTIFDNILKGSRVLVDARDKLGIPWQYSENEKHGMFLMAFENKAGLPVEPATFQLYVPALSALWRDSGIREAFSRRSEFQLGESVKYFLDNLDRIGQLNYFPSKQDILLARKATKGIVEHDFVIKKIPFKMVDVGGQRSQRQKWFQCFDGITSILFMVSSSEYDQVLMEDRRTNRLVESMNIFETIVNNKLFFNVSIILFLNKMDLLVEKVKTVSIKKHFPDFRGDPHRLEDVQRYLVQCFDRKRRNRSKPLFHHFTTAIDTENVRFVFHAVKDTILQENLKDIMLQ
notes: whole, on cells; the LgBiT insert is not placed; also called NanoBiT-G12 (Gα subunit); G12
B4: binds (Sm-Gβ1 with untagged Gγ2 [4]).
